What was measured:
Assay in all cases: MST
[1] = target: NCP1, nucleosome core particle with 3xFLAG-H3K36NleCS+me2 (X. laevis | , cysteine at position 36 alkylated with vinyl dimethylsulfonium 4 (NleCS+me2))
[2] = target: NCP2, nucleosome core particle with 3xFLAG-H3K36NleCTMS (X. laevis | , cysteine at position 36 alkylated with vinyl cyclic sulfonium 5 (NleCTMS))
[3] = target: NCP3, nucleosome core particle with 3xFLAG-H3Kc36me3 (X. laevis | , Kc36me3 (trimethyllysine mimic on cysteine at position 36))

Row | Kd [1] | Kd [2] | Kd [3] | Binder
1 | 0.52 µM | 1.2 µM | 1.4 µM | PWWP domain of LEDGF (domain or fragment) not shown
2 | 1.1 µM | 1.6 µM | 1.4 µM | PWWP domain of NSD2 (domain or fragment) VGDLVWSKVSGYPWWPCMVSADPLLHSYTKLKGQKKSARQYHVQFFGDAPERAWIFEKSLVAFEG
